Data published in patent US20170015742A1 (published 2017).

How the values were obtained:
[1] = target: recombinant human VEGF165 (human, UniProt P15692 207-395); assay: cell-based or functional assay
[2] = target: recombinant human PDGF-BB (human, UniProt P01127 82-190); assay: cell-based or functional assay
Chain of recombinant human PDGF-BB (P01127 82-190 limits assumed): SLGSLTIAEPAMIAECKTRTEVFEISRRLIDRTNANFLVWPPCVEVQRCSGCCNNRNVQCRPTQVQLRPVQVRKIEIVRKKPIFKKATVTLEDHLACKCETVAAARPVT

Chain of recombinant human VEGF165 (P15692 other isoform, or with tags, fused parts or gaps limits assumed): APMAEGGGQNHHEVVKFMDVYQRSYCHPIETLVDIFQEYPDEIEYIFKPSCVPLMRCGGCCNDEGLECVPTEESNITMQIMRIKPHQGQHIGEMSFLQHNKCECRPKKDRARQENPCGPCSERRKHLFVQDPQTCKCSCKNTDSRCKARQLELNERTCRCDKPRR

| Potency IC50 (nM) HMVEC-d hVEGF165 [1] | Potency IC50 (nM) NIH-3T3 hPDGF-BB [2] | Binder |
| --- | --- | --- |
| 0.054 nM | 5.72 nM | 9E10.1_GS_3E2.1 (bispecific antibody, human IgG1, kappa, L234A L235A) heavy: EIQLVQSGSELKKPGASVKVSCKASGYTFTNYGMYWVKQAPGQGLEYMGWIDTETGRPTYADDFKGRFVFSLDTSVSTAYLQISSLKAEDTAVYFCARWSGDTTGIRGPWFAYWGQGTLVTVSSGGGGSGGGGSEVQLVQSGAEVKKPGSSVKVSCKASGYTFTESYMYWVKQAPGQGLELIGRIDPEDGSTDYVEKFKNKATLTADKSTSTAYMELSSLRSEDTAVYFCARFGARSYFYPMDAWGQGTTVTVSSASTKGPSVFPLAPSSKSTSGGTAALGCLVKDYFPEPVTVSWNSGALTSGVHTFPAVLQSSGLYSLSSVVTVPSSSLGTQTYICNVNHKPSNTKVDKKVEPKSCDKTHTCPPCPAPEAAGGPSVFLFPPKPKDTLMISRTPEVTCVVVDVSHEDPEVKFNWYVDGVEVHNAKTKPREEQYNSTYRVVSVLTVLHQDWLNGKEYKCKVSNKALPAPIEKTISKAKGQPREPQVYTLPPSREEMTKNQVSLTCLVKGFYPSDIAVEWESNGQPENNYKTTPPVLDSDGSFFLYSKLTVDKSRWQQGNVFSCSVMHEALHNAYTQKSLSLSPGK light: DIRMTQSPSSLSASVGDRVTIECLASEDIYSDLAWYQQKPGKSPKLLIYNANGLQNGVPSRFSGSGSGTDYSLTISSLQPEDVATYFCQQYNYFPGTFGQGTKLEIKGGSGGGGSGGETVLTQSPATLSLSPGERATLSCRASESVSTLMHWYQQKPGQQPRLLIYGASNLESGVPARFSGSGSGTDFTLTISSLEPEDFAVYFCQQSWNDPWTFGGGTKVEIKRTVAAPSVFIFPPSDEQLKSGTASVVCLLNNFYPREAKVQWKVDNALQSGNSQESVTEQDSKDSTYSLSSTLTLSKADYEKHKVYACEVTHQGLSSPVTKSFNRGEC |
| 0.06 nM | 1.32 nM | 9E10.6_GS_3E2.1 (bispecific antibody, human IgG1, kappa, L234A L235A) heavy: EVQLVQSGAEVKKPGSSVKVSCKASGYTFTNYGMYWVRQAPGQGLEWMGWIDTETGRPTYADDFKGRFTFTADKSTSTAYMELSSLRSEDTAVYYCARWSGDTTGIRGPWFAYWGQGTLVTVSSGGGGSGGGGSEVQLVQSGAEVKKPGSSVKVSCKASGYTFTESYMYWVKQAPGQGLELIGRIDPEDGSTDYVEKFKNKATLTADKSTSTAYMELSSLRSEDTAVYFCARFGARSYFYPMDAWGQGTTVTVSSASTKGPSVFPLAPSSKSTSGGTAALGCLVKDYFPEPVTVSWNSGALTSGVHTFPAVLQSSGLYSLSSVVTVPSSSLGTQTYICNVNHKPSNTKVDKKVEPKSCDKTHTCPPCPAPEAAGGPSVFLFPPKPKDTLMISRTPEVTCVVVDVSHEDPEVKFNWYVDGVEVHNAKTKPREEQYNSTYRVVSVLTVLHQDWLNGKEYKCKVSNKALPAPIEKTISKAKGQPREPQVYTLPPSREEMTKNQVSLTCLVKGFYPSDIAVEWESNGQPENNYKTTPPVLDSDGSFFLYSKLTVDKSRWQQGNVFSCSVMHEALHNAYTQKSLSLSPGK light: DIRMTQSPSSLSASVGDRVTITCLASEDIYSDLAWYQQKPGKSPKLLIYNANGLQNGVPSRFSGSGSGTDYTLTISSLQPEDVATYFCQQYNYFPGTFGQGTKLEIKGGSGGGGSGGETVLTQSPATLSLSPGERATLSCRASESVSTLMHWYQQKPGQQPRLLIYGASNLESGVPARFSGSGSGTDFTLTISSLEPEDFAVYFCQQSWNDPWTFGGGTKVEIKRTVAAPSVFIFPPSDEQLKSGTASVVCLLNNFYPREAKVQWKVDNALQSGNSQESVTEQDSKDSTYSLSSTLTLSKADYEKHKVYACEVTHQGLSSPVTKSFNRGEC |
| 0.072 nM | 1.4 nM | 4G8.5_GS_3E2.1 (bispecific antibody, human IgG1, kappa, L234A L235A) heavy: EIQLVQSGSELKKPGASVKVSCKASGYTFTNYGMYWVRQAPGQGLEYMGWINTETGKPTYADDFKGRFVFSLDTSVSTAYLQISSLKAEDTAVYFCARTNYYYRSYIFYFDYWGQGTMVTVSSGGGGSGGGGSEVQLVQSGAEVKKPGSSVKVSCKASGYTFTESYMYWVKQAPGQGLELIGRIDPEDGSTDYVEKFKNKATLTADKSTSTAYMELSSLRSEDTAVYFCARFGARSYFYPMDAWGQGTTVTVSSASTKGPSVFPLAPSSKSTSGGTAALGCLVKDYFPEPVTVSWNSGALTSGVHTFPAVLQSSGLYSLSSVVTVPSSSLGTQTYICNVNHKPSNTKVDKKVEPKSCDKTHTCPPCPAPEAAGGPSVFLFPPKPKDTLMISRTPEVTCVVVDVSHEDPEVKFNWYVDGVEVHNAKTKPREEQYNSTYRVVSVLTVLHQDWLNGKEYKCKVSNKALPAPIEKTISKAKGQPREPQVYTLPPSREEMTKNQVSLTCLVKGFYPSDIAVEWESNGQPENNYKTTPPVLDSDGSFFLYSKLTVDKSRWQQGNVFSCSVMHEALHNAYTQKSLSLSPGK light: ATQLTQSPSLSASVGDRVTITCRASESVSTHMHWYQQKPGKQPKLLIYGASNLESGVPSRFSGSGSGTDFTLTISSLQPEDFATYFCQQSWNDPFTFGQGTKLEIKGGSGGGGSGGETVLTQSPATLSLSPGERATLSCRASESVSTLMHWYQQKPGQQPRLLIYGASNLESGVPARFSGSGSGTDFTLTISSLEPEDFAVYFCQQSWNDPWTFGGGTKVEIKRTVAAPSVFIFPPSDEQLKSGTASVVCLLNNFYPREAKVQWKVDNALQSGNSQESVTEQDSKDSTYSLSSTLTLSKADYEKHKVYACEVTHQGLSSPVTKSFNRGEC |
| 0.079 nM | 0.227 nM | 4G8.12-GS10-9E8.4 (bispecific antibody, human IgG1, kappa, L234A L235A) heavy: not shown light: DTVLTQSPATLSLSPGERATLSCRASESVSTHMHWYQQKPGQAPRLLIYGASNLESGVPARFSGSGSGTDFTLTISSLEPEDFAVYFCQQSWNDPFTFGQGTKLEIKRGGSGGGGSGEFVLTQSPGTLSLSPGERATLSCERSSGDIGDSYVSWYQQKPGQAPRLVIYADDQRPSGIPDRFSGSGSGTDFTLTISRLEPEDFAVYYCQSYDINIDIVFGGGTKVEIKRTVAAPSVFIFPPSDEQLKSGTASVVCLLNNFYPREAKVQWKVDNALQSGNSQESVTEQDSKDSTYSLSSTLTLSKADYEKHKVYACEVTHQGLSSPVTKSFNRGEC |
| 0.113 nM | 0.459 nM | 4G8.14-GS10-9E8.4 (bispecific antibody, human IgG1, kappa, L234A L235A) heavy: not shown light: DTVLTQSPSTLSASPGERATISCRASESVSTHMHWYQQKPGQAPKLLIYGASNLESGVPSRFSGSRSGTDFTLTISSLQPEDFAVYFCQQSWNDPFTFGQGTKVEIKRGGSGGGGSGEFVLTQSPGTLSLSPGERATLSCERSSGDIGDSYVSWYQQKPGQAPRLVIYADDQRPSGIPDRFSGSGSGTDFTLTISRLEPEDFAVYYCQSYDINIDIVFGGGTKVEIKRTVAAPSVFIFPPSDEQLKSGTASVVCLLNNFYPREAKVQWKVDNALQSGNSQESVTEQDSKDSTYSLSSTLTLSKADYEKHKVYACEVTHQGLSSPVTKSFNRGEC |
| 0.907 nM | 0.255 nM | 4G8.13-GS10-9E8.4 (bispecific antibody, human IgG1, kappa, L234A L235A) heavy: not shown light: ETVLTQSPATLSVSPGERATLSCRASESVSTHMHWYQQKPGQAPRLLIYGASNLESGVPARFSGSGSGTDFTLTISSLQSEDFAVYFCQQSWNDPFTFGQGTRLEIKRGGSGGGGSGEFVLTQSPGTLSLSPGERATLSCERSSGDIGDSYVSWYQQKPGQAPRLVIYADDQRPSGIPDRFSGSGSGTDFTLTISRLEPEDFAVYYCQSYDINIDIVFGGGTKVEIKRTVAAPSVFIFPPSDEQLKSGTASVVCLLNNFYPREAKVQWKVDNALQSGNSQESVTEQDSKDSTYSLSSTLTLSKADYEKHKVYACEVTHQGLSSPVTKSFNRGEC |
| 0.076 nM | 0.05 nM | 4G8.5_GS_CL-33675 (bispecific antibody, human IgG1, kappa, L234A L235A) heavy: EIQLVQSGSELKKPGASVKVSCKASGYTFTNYGMYWVRQAPGQGLEYMGWINTETGKPTYADDFKGRFVFSLDTSVSTAYLQISSLKAEDTAVYFCARTNYYYRSYIFYFDYWGQGTMVTVSSGGGGSGGGGSEVTLRESGPALVKPTQTLTLTCTFSGFSLSTYGMGVGWIRQPPGKALEWLANIWWDDDKYYNPSLKNRLTISKDTSKNQVVLTMTNMDPVDTATYYCARIESSGPKYSFDYWGQGTMVTVSSASTKGPSVFPLAPSSKSTSGGTAALGCLVKDYFPEPVTVSWNSGALTSGVHTFPAVLQSSGLYSLSSVVTVPSSSLGTQTYICNVNHKPSNTKVDKKVEPKSCDKTHTCPPCPAPEAAGGPSVFLFPPKPKDTLMISRTPEVTCVVVDVSHEDPEVKFNWYVDGVEVHNAKTKPREEQYNSTYRVVSVLTVLHQDWLNGKEYKCKVSNKALPAPIEKTISKAKGQPREPQVYTLPPSREEMTKNQVSLTCLVKGFYPSDIAVEWESNGQPENNYKTTPPVLDSDGSFFLYSKLTVDKSRWQQGNVFSCSVMHEALHNAYTQKSLSLSPGK light: ATQLTQSPSLSASVGDRVTITCRASESVSTHMHWYQQKPGKQPKLLIYGASNLESGVPSRFSGSGSGTDFTLTISSLQPEDFATYFCQQSWNDPFTFGQGTKLEIKGGSGGGGSGGEIVLTQSPGTLSLSPGERATLSCRASSGSIWYSFVSWYQQKPGQAPRLLIYADDQRASGIPDRFSGSGSGTDFTLTISRLEPEDFAVYYCQSYGINIDVVFGGGTKVEIKRTVAAPSVFIFPPSDEQLKSGTASVVCLLNNFYPREAKVQWKVDNALQSGNSQESVTEQDSKDSTYSLSSTLTLSKADYEKHKVYACEVTHQGLSSPVTKSFNRGEC |
| 0.281 nM | 1.33 nM | 4G8.4-GS10-9E8.4 (bispecific antibody, human IgG1, kappa, L234A L235A) heavy: not shown light: AIQLTQSPSSLSASVGDRVTITCRASESVSTHMHWYQQKPGKAPKLLIYGASNLESGVPSRFSGSGSGTDFTLTISSLQPEDFATYYCQQSWNDPFTFGQGTKLEIKRGGSGGGGSGEFVLTQSPGTLSLSPGERATLSCERSSGDIGDSYVSWYQQKPGQAPRLVIYADDQRPSGIPDRFSGSGSGTDFTLTISRLEPEDFAVYYCQSYDINIDIVFGGGTKVEIKRTVAAPSVFIFPPSDEQLKSGTASVVCLLNNFYPREAKVQWKVDNALQSGNSQESVTEQDSKDSTYSLSSTLTLSKADYEKHKVYACEVTHQGLSSPVTKSFNRGEC |
| 0.079 nM | > 5 nM | 4G8.5-GS10-9E8.4 (bispecific antibody, human IgG1, kappa, L234A L235A) heavy: not shown light: ATQLTQSPSLSASVGDRVTITCRASESVSTHMHWYQQKPGKQPKLLIYGASNLESGVPSRFSGSGSGTDFTLTISSLQPEDFATYFCQQSWNDPFTFGQGTKLEIKRGGSGGGGSGEFVLTQSPGTLSLSPGERATLSCERSSGDIGDSYVSWYQQKPGQAPRLVIYADDQRPSGIPDRFSGSGSGTDFTLTISRLEPEDFAVYYCQSYDINIDIVFGGGTKVEIKRTVAAPSVFIFPPSDEQLKSGTASVVCLLNNFYPREAKVQWKVDNALQSGNSQESVTEQDSKDSTYSLSSTLTLSKADYEKHKVYACEVTHQGLSSPVTKSFNRGEC |
